For 5 molecules, binding result and Kd results are on record in article PMC12905498 (Biochemical Journal, 2026).

By Kd is commonly meant a measure of binding affinity in units of concentration. A low value points to higher affinity.

The labels stand for the following.
B1: Plasmodium berghei HAP2 domain 3 (domain or fragment)
chain: VSIATITHVTIPNDCASNNSNSNECVLIIHVWNNSKFVGSNFSCSIACTNKETDQLASHINPIAPVRAFIGPNKNYAFYFIIKFLINKEITTLCKAIVKDSNGKECSIEEFELQSKESVH
notes: source: Sf21 cells (baculovirus), purified as PfHAP2 D3 (Ni-NTA, SEC)
B2: anti-PbHAP2 D3 mAb 6.14 (variable regions in AbVec-hIgG1 and AbVec-IgKappa) (antibody, V domains shown)
VH: EVQLVESGGGLVKPGGSLKLSCAASEFTFSDYGMHWVRQAPEKGLEWVASISSGSNSIYYSDTVKGRFTISRDNAKSILFLQMTSLRSEDTAMYYCSREAYFAMDYWGQGTSVTVSS
VL: DIQMTQSPSSLSAILGGKVTITCKASQDIHKYIAWYQHKPGKGPRLLIYYTSTLQPGIPSRFSGSGSGRDYSFSISNLEPEDVATYFCLQYDNLYTFGGGTKVEIE
notes: also called anti-PbHAP2 mAb 6.14; source: Expi293 cells, transient transfection (1:1 light and heavy chain plasmids), purified as the nanobody-Fcs (HiTrap PrismA)
B3: Plasmodium vivax HAP2 domain 3 (domain or fragment)
chain: VSTATITHITTPKNCSSNQSESKDCVLIVHTWNNSANVGSNFSCHVICTDKETGKIATHIGPISPVNAFIDANKNYAFYFIIKFLINKEIKTMCKAVLRDSNGKECSKEDFLLTSKE
notes: as for B1
B4: Pfs48/45 Domain 3 (domain or fragment)
chain: KVIHGCNFSSNVSSKHTFTDSLDISLVDDSAHISCNVHLSEPKYNHLVGLNCPGDIIPDCFFQVYQPESEELEPSNIVYLDSQINIGDIEYYEDAEGDDKIKLFGIVGSIPKTTSFTCICKKDKKSAYMTVTIDSA
notes: as for B1
B5: Plasmodium falciparum HAP2 domain 3 (PfHAP2 D3 HisAvi), deglycosylated (domain or fragment)
chain: VSYGTITHITIPKDCSSNQTNSKECILVVHTWNNNKTIGANFSCHVLCVDKSTQQVATHISPISKINAHIDANKNYAFYFIIKFLINKKITSNCTAILKDADGRECSKLSFNLTSKETIN

What all share (details): both partners purified
In assay [1] the target is T1, WNbFc 333 (nanobody WNb 333 fused to hinge and Fc of human IgG1) (alpaca).
T1 construct: also called WNb 333 nanobody-Fc; source: Expi293 cells, transient transfection, purified (HiTrap PrismA)
The assay can be described thus: BLI. (In general: BLI is a label-free optical method that tracks binding on a fibre tip over time.)

Assay [2] concerns the target T2, WNbFc 334 (nanobody WNb 334 fused to hinge and Fc of human IgG1) (alpaca).
T2 construct: also called WNb 334 nanobody-Fc; source: Expi293 cells, transient transfection, purified (HiTrap PrismA)
The assay is described as follows: BLI; affinity: nanobody-Fcs or antibodies (5 µg/ml) loaded on anti-human IgG Fc Capture (AHC) tips, two-fold dilution series of antigen; PBS pH 7.4, 0.1% BSA, 0.05% TWEEN-20, 25°C; 1:1 Langmuir model; mean of two experiments.

The target of assay [3] is B5. Described as above.
In assay [4] the target is T1, WNbFc 333 (nanobody WNb 333 fused to …). The assay is described as follows: ELISA. Background: An ELISA detects its analyte on a solid surface through an enzyme-linked reagent.
Assay [5] addresses T3, WNbFc 335 (nanobody WNb 335 fused to hinge and Fc of human IgG1) (alpaca).
T3 construct: also called WNb 335 nanobody-Fc; source: Expi293 cells, transient transfection, purified (HiTrap PrismA)
The assay is described as follows: ELISA.

In assay [6] the target is T2, WNbFc 334 (nanobody WNb 334 fused to …). The assay is described as follows: ELISA.
The target in assay [7] is T1, WNbFc 333 (nanobody WNb 333 fused to …). The assay is described as follows: BLI; affinity: nanobody-Fcs or antibodies (5 µg/ml) loaded on anti-human IgG Fc Capture (AHC) tips, two-fold dilution series of antigen; PBS pH 7.4, 0.1% BSA, 0.05% TWEEN-20, 25°C; 1:1 Langmuir model; mean of two experiments.
Assay [8] has as its target T3, WNbFc 335 (nanobody WNb 335 fused to …). The assay is described as above.

B1: the binding result in assay [1] and in assay [2] was “binds” in each case.
Consider B2, for which the binding result in assay [3] was “no binding”.
Regarding B3, the binding result in assay [1] is recorded as “binds”.
For B4, the binding result in assay [4], in assay [5] and in assay [6] was “no binding (tested: 125 nM)” each time.
For B5, the figures for the dissociation constant Kd in assay [7], in assay [8] and in assay [2] were 0.0158 µM, 0.0508 µM and 0.0261 µM, respectively.
